According to the supplement of paper PMC12042874:
± gives the uncertainty stated by the source.

Test: amyloid nucleation score (Sup35N fusion, yeast selection) (log enrichment); library NNK1; higher = more nucleation; inactive = no reads after selection
How it was run: (§1)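 Nucleation score: DiMSum log enrichment of output over input reads, centred on the mode score of non-aggregating sequences. Only sequences with at least 100 input reads were kept. Reads came from Illumina sequencing of plasmid inserts before and after 7 days of growth at 30°C without adenine and uracil, in psi-negative yeast expressing Sup35N fused to peptides of 20 random codons after 24 hours of induction with 100 μM copper sulfate.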

Substance	amyloid nucleation score
VNSTMVPRVLME	0.935 ± 0.69
TGFGKKRATGWVAWGWEKLL	-0.468 ± 0.32
EVVKSITRKPNLVWRYLTLD	0.588 ± 0.44
GDKCLVTYCYLLGDGEGQQS	-0.05 ± 0.43
MIFSHETSRVIGDPWGPWN	0.056 ± 0.88
VTLAQKLLDF	-0.421 ± 1.1
NEGIMPLVNHSKQEEPGVYR	0.753 ± 0.57
SDCRKAFIMSHRSDGNLEFV	0.382 ± 1.4
KFNIVILLINCAPAFSEMYL	5.475 ± 0.05
KTFYFTQLYSDYRLFFETGK	0.558 ± 0.46
GMLGDVTVYLACRLLISRFL	inactive
IFQPFFAYSGKLVWPFKRDP	4.01 ± 0.081
NWIGS	1.44 ± 0.41
GRRLIKSTQCGVNKVDSAIW	-0.184 ± 0.27
LLVMVVMGCCA	0.163 ± 0.83
SKCCDSSRARVASSYS	0.261 ± 0.36
RLYFRSSYDCDETRWKEKYM	0.049 ± 0.38
RHRDLGWRVIRWRAFMTSLW	-1.31 ± 2.1
PFFWFH	-0.482 ± 0.26
LRYFGL	inactive
SCKRSA	0.578 ± 0.4
SKQGRCLTFYQYVSLIISSM	-0.022 ± 0.18
QWGRMPMFLIDRTGGWASMG	0.409 ± 0.32
APMYDDLDATMVELEGP	0.254 ± 1.2
GSVDQSMC	0.968 ± 0.45
DLGKVVNCYFLFYR	1.51 ± 0.25

Substance	amyloid nucleation score
SKLYLIEVFLYA	-0.468 ± 0.66
VNMNELRNNRLSSVVFLVVG	2.09 ± 0.21
HLGAYYTGI	0.984 ± 0.36
RCGFSLNFC	3.2 ± 0.097
IAVNSYASVDTYTSLLIRWL	0.993 ± 0.36
QLVKSVY	-0.166 ± 0.35
GSWFYIFRV	0.089 ± 0.34
SDTRYGLFVNWRFWDRGSGW	0.238 ± 0.34
CWVYFSNSSVILRR	0.074 ± 0.84
IRQTVVLGL	-0.732 ± 0.7
RAVRVMRLSSGLSLGRPSDW	inactive
CHELLALDLLSMRNS	0.416 ± 0.55
NTLYVGWCMGFV	-0.354 ± 0.3
QLPAFGINMSRLSNSCSYGC	0.095 ± 0.59
RFEWLCGVFSGALPKGAWLK	-0.144 ± 0.37
KRLLFKYRSVNRHTYLFIPV	-0.616 ± 0.28
LRTCFEQRENMIA	-0.229 ± 0.79
MMPSECMEFLMCLWFGSGSD	-0.722 ± 0.55
CMMSNRTCQAQLVMMWEMW	inactive
SFPVQQIYF	0.971 ± 0.49
KLSYFSQEKRDNWPISRLPS	0.072 ± 0.3
LYEAMPKTLAGIWSTPNMCV	-0.507 ± 0.93
DMFVGKTRMRRGSVMLYFMG	0.829 ± 0.52
LLLRSRSTRF	-0.233 ± 0.3
KASGIMLSSGVLEILVWVQW	0.01 ± 0.84
MLPLCMSAIRRVKLRSPSEY	0.151 ± 0.52

Substance	amyloid nucleation score
IFSNQLYVERIVLDENKALL	3.62 ± 0.094
CLGHLLLTESIPCSFCSYWM	4.55 ± 0.075
SSDKLCAYFVREIWTQGAGW	0.507 ± 0.54
LLFTNEKHNSLVNQGTPEWC	0.13 ± 0.9
GLPVGQGGELDY	2.32 ± 0.14
SSCSYLGRDRMCFWPYFLTT	0.016 ± 0.39
QVTRYYGGNAVR	1.59 ± 0.57
VENNWIWVGRTLNATLDSHQ	0.082 ± 0.26
LVLSWSWICFL	7.39 ± 0.059
FIGAFRTTHSAGLLTDRMVL	7.851 ± 0.057
FKEMIAWPWLESSSGEFTIV	0.645 ± 0.62
LSSGSKYFSKVVDASLVCAC	0.377 ± 0.77
QVYLILTEMRMTF	1.4 ± 0.13
LTDPLCQTPFFYLFCRDAQE	-0.142 ± 0.4
CDNLRCRGLGDWCAWQPLTS	0.335 ± 0.65
NKLCTR	inactive
YRVNWFYMQRCAIP	-0.269 ± 0.86
MNTWDMSLIPWSLARWVNTA	0.063 ± 0.4
NAVINQ	0.388 ± 0.73
FNTCMSLFSNCFPNCWMHFK	0.428 ± 0.61
LGRKKGFMTYSGLYYVRLWA	-0.81 ± 1.4
NGEIVYASWTCDPSIGRRGK	0.207 ± 0.97
SRLQLNWLQPRWY	4.27 ± 0.077
SCDVTILGYLAMMKLDVMWV	-0.074 ± 0.34
KKAIPACHVVSFTMRLSFLD	0.225 ± 0.63
EFSVFYMGFGVM	inactive

Substance	amyloid nucleation score
LCMVAQLWYQPV	2.01 ± 0.16
FMALLQLAGVIWVSLTVLTP	0.08 ± 0.62
SMSFRCLDAKDVPDRASQGY	-0.385 ± 0.39
CPWRNRII	0.684 ± 0.6
RILRDQTWIPSMATDSILVC	-1.23 ± 0.79
FFYLIISGMVMLSNPLSRVS	inactive
EWGNRRVFYVVMDGSRCPAS	0.1 ± 0.16
PHGHVEYLIFFCNKPGSHGS	1.49 ± 0.3
KVFQQGC	-0.165 ± 1.6
MPEILSVRSF	-0.943 ± 0.32
WLFLTYNVMGLKVGKFAGHT	-0.437 ± 0.42
LLPYSLMLRDLGFLKHYLGV	-0.264 ± 0.61
NPDDVFMSAVWGYF	-0.127 ± 0.19
HCFPCLVVIV	0.121 ± 0.36
IAHFELMRHNVHLKWVESWL	0.911 ± 0.27
YASGLNSHDELVFYFYNRER	inactive
WYYYTVSSEGSNSAGTKLRG	0.376 ± 0.38
LLLYDPREC	-1.46 ± 0.91
SQYDWLKLFSNVY	-0.175 ± 0.21
AAFSDPRNRLMKPVELKHAL	1.31 ± 0.9
FFASCIRYDSRNCIGNLQLG	0.149 ± 0.64
MLTNVSNICYWNDVVGDSLA	0.838 ± 0.28
CSYPHIDIAPRSACPTWTQD	0.432 ± 0.72
LVVLSTVDA	-0.279 ± 0.67
CLCSYYKILVYSSLVLDNAY	0.58 ± 0.45
QRFQAGPCRFSE	-0.394 ± 0.95

Substance	amyloid nucleation score
NSDKLPRCHLSLSYV	0.994 ± 0.28
FIELMRGDDLMHRGTLYVLR	inactive
IQALDLDTVFDCC	6.45 ± 0.088
LWLTFFSQ	2.35 ± 0.11
TMWIAGVRNR	-0.367 ± 0.62
APNFLMCNRPGIF	3.02 ± 0.086
FTDLFPEDRIWVPDYAGQRR	0.255 ± 1.4
LTSFSTDPISGLLAGCFSID	inactive
VLISPGFLSVARCLSLDTLF	-0.343 ± 0.33
RLRDTNVYTTQFFVFYLMNW	6.677 ± 0.051
PCCWLPRGDTLDYTQHR	-0.065 ± 0.98
RCYKSLVGMNTHKSAAVVER	0.011 ± 0.27
RIILGETGAALWWRI	4.61 ± 0.079
GSWIFCVFHLNMDFCSMGST	-0.023 ± 0.6
DWVELR	-0.101 ± 0.86
SITLS	-0.926 ± 1.8
NRIMY	-0.09 ± 0.2
IMYSQNEGDMYESSFV	-0.551 ± 0.35
HRRSTHGMYPVPYCSSINH	0.687 ± 0.48
FDGMYNDVRTRNVGARYF	0.552 ± 0.64
FSMSILENRYTTFELSGAYQ	-0.722 ± 0.66
RFQGGWSRF	3.68 ± 0.11
LSAKLQFCITIEYALRVTKC	-0.106 ± 1.7
NRIRRWWTFRVLGDSQKCVD	0.411 ± 1
STVGPMWVWTTTLAKNAIPK	0.833 ± 0.57
WSTNNCCYA	-1.38 ± 2.1

Substance	amyloid nucleation score
VNLYGVLMGSLLGGQRQHDV	-1.1 ± 1.9
NRTWGYLSCALRNPSMTT	-0.305 ± 0.47
HAWVVVGRRGGKGLEAWCPV	-0.71 ± 0.81
NVQGSHSCSISCYIMPGRAM	5.56 ± 0.077
NARFWVRCIDVHFGVKAGDG	inactive
LWGIMYTM	-0.026 ± 0.93
KKSGRYESVSQGWYDRLLQF	-0.667 ± 0.31
TSMLDLN	-1.69 ± 1.8
FSPSLVMHSATSLRNVGLSA	-0.93 ± 2.4
SNTEP	-0.487 ± 0.57
CSTTLEVTVGMAVVMLLQGI	2.66 ± 0.086
SRYQEYRFQMCMMECMRRLA	0.115 ± 1
RNGPSWYSAIPY	inactive
ADYVKMNRDFRVGTTYDMST	1.18 ± 0.65
TWSRAQM	inactive
DYALYYGVASNRFFGLFRSP	0.642 ± 0.31
MVGYGECIDMWPMLVKVDVV	-0.378 ± 0.69
AFSYRGGVMRSSFEMLTYVS	-0.906 ± 0.61
NPPGGDIYEC	-0.721 ± 0.53
SCPRVTIFCCSGILGREWGK	7.189 ± 0.045
CWRSVCGLLATGNQYFFGNA	4.88 ± 0.07
TLVSAVSCCLNAC	-0.269 ± 0.26
QNIYFFKCAKHSKVNRSDMS	1.91 ± 0.55
HLKRRLKFDSGTSYQLVQKV	0.177 ± 1
MSIQCTSALGPL	2.13 ± 0.35

Test: amyloid nucleation score (Sup35N fusion, yeast selection) (log enrichment); library NNK2; higher = more nucleation; inactive = no reads after selection
How it was run: as §1

Substance	amyloid nucleation score
KVLTCRIYSIWVLIC	0.009 ± 0.32
DVQHFIWCCNATVTYPLLVL	1.27 ± 0.22
TNSALGSMVYELGRPLVWFF	inactive
HASTEIGSWL	0.552 ± 0.42
IPWVNRTPCSTCGGFRFTDP	3.53 ± 0.08
TSRRL	2.1 ± 0.13
AMVLLYDGTGSTGVNPGQAG	0.987 ± 0.67
DTLVHMLRYFGGTQPWYM	-0.183 ± 0.53
GSYHFHASNTD	-0.555 ± 0.79
YGSDALYWLVWVYV	-0.016 ± 0.48
MPSRYMIVMFNLTLPRRGVG	-0.226 ± 0.55
MISCSLSFSLAPQDELRSCK	inactive
YIGVKKNNSMAGAYGGSLAQ	inactive
WCKLDWLIWGIEQRP	0.063 ± 1.1
FLMRDFGMWFLFSNLLYITL	-0.628 ± 0.48
ILSNELFYLLYEW	8.798 ± 0.079
